Measured values as given in paper PMC4182932 (Current protocols in protein science / editorial board, …, 2014).

Biological target: the molecule itself
Assay: AUC

B1: βB1-crystallin (natural protein, human, UniProt P53674 1-252, looked up)
chain: MSQAAKASASATVAVNPGPDTKGKGAPPAGTSPSPGTTLAPTTVPITSAKAAELPPGNYRLVVFELENFQGRRAEFSGECSNLADRGFDRVRSIIVSAGPWVAFEQSNFRGEMFILEKGEYPRWNTWSSSYRSDRLMSFRPIKMDAQEHKISLFEGANFKGNTIEIQGDDAPSLWVYGFSDRVGSVKVSSGTWVGYQYPGYRGYQYLLEPGDFRHWNEWGAFQPQMQSLRRLRDKQWHLEGSFPVLATEPPK
With B1 the “stoichiometry N” value was 2.
